Drawing on patent US20230381334A1, this text covers EC50 for 3 molecules.

Non-standard residues stand in square brackets, D forms with d. No end group written: not given here.

The experiment addresses mouse anti V5 antibody (Thermo Scientific). As to the kind of experiment: ELISA: 1 ug/ml mouse anti V5 with increasing SADC, complexes captured on streptavidin via biotinylated SADC peptide, bound IgG detected with anti mouse IgG-HRP. In general terms: ELISA stands for enzyme-linked immunosorbent assay.
Regarding IPNPLLGLDGGSGDYKDDDDKGK[BiotinAca]GC (peptide, part only; not given: albumin scaffold, part only, also: bound to albumin scaffold, attachment site not given here) [SADC with albumin scaffold carrying tagged V5 peptide …-(BiotinAca)GC], the concentration for a half-maximal effect (EC50) (usually the concentration needed to bring the measured effect to its halfway point) came out at 0.0279 µg/mL.

In turn, IPNPLLGLDGGSGDYKDDDDKGK[BiotinAca]GC (peptide, part only; not given: haptoglobin scaffold, part only, also: bound to haptoglobin scaffold, attachment site not given here) [SADC with haptoglobin scaffold carrying tagged V5 peptide …-(BiotinAca)GC] had an EC50 of 0.0555 µg/mL.

Take IPNPLLGLDGGSGDYKDDDDKGK[BiotinAca]GC (peptide, part only; not given: transferrin scaffold, part only, also: bound to transferrin scaffold, attachment site not given here) [SADC with transferrin scaffold carrying tagged V5 peptide …-(BiotinAca)GC]: the EC50 came to 0.007 µg/mL.
